These results are taken from US20260217833A1 (APTEVO RESEARCH AND DEVELOPMENT, published 2026).

What is called Kd is the equilibrium constant for the complex coming apart. High values mean weaker binding, low ones tighter binding. The term koff denotes the rate constant with which the complex falls apart. By kon is commonly meant the second-order rate constant of association. A higher kon goes with fast association.

The target of one experiment is T1, huPD-L1 ECD AFH (human).
T1 construct: also called PDL01001; recombinant human PD-L1 ectodomain (ECD)
T1 sequence (chain, as listed by the source limits assumed): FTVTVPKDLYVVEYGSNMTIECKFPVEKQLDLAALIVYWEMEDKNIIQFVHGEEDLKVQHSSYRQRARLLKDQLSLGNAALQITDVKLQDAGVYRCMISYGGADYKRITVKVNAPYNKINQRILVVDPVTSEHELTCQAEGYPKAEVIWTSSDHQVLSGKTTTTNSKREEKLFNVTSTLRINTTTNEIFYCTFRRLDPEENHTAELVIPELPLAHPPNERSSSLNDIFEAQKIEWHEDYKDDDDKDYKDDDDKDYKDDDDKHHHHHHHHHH
As to the kind of experiment: SPR, binder captured on anti-human IgG, PD-L1 ECD injected, 1:1 fit. (In general: Surface plasmon resonance follows binding to a sensor surface in real time, without labels.)

The target in experiment [1] is T2, Human PD-L1 full-length (human, UniProt Q9NZQ7 19-290).
T2 construct: also called PDL01021; CHOK1SV/huPDL1
T2 sequence (Q9NZQ7 19-290): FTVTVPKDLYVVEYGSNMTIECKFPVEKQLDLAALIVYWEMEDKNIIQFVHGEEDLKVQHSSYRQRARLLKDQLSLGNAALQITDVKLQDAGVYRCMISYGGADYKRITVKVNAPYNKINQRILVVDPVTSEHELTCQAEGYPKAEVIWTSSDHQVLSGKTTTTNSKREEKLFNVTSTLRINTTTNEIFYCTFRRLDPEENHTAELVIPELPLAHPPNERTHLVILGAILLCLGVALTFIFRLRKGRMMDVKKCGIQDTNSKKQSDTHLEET
The experiment in a line: MSD cell binding, CHOK1SV/human PD-L1 cells; x axis without printed unit.

Another experiment deals with T3, Cyno PD-L1 full-length (cynomolgus, UniProt Q9NZQ7 19-290 (human entry)).
T3 construct: also called PDL01022; CHOK1SV/cynoPDL1
T3 sequence (Q9NZQ7 other isoform, or with tags, fused parts or gaps): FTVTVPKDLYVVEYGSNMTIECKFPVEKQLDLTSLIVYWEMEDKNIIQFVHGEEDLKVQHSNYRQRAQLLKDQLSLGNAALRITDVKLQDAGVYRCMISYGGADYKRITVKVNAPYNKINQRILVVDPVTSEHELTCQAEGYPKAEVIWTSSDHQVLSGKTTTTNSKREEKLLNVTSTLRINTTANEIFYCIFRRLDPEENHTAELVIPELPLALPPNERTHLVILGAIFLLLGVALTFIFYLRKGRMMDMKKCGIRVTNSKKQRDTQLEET
The experiment in a line: MSD cell binding, CHOK1SV/cynomolgus PD-L1 cells; x axis without printed unit.

For the next experiment, the target named is T4, human CD40 full-length (human, UniProt P25942 21-277).
T4 construct: Also used for CD40 of Daudi cells, of CD40-expressing HEK293 cells and of the BPS CD40/NFkB HEK293 reporter cells where the row says so; also called CD4001012; CHOK1SV/CD40
As to the kind of experiment: flow cytometry, CHOK1SV/human CD40 cells.

Experiment [2] addresses T2, Human PD-L1 full-length. As to the kind of experiment: flow cytometry, CHOK1SV/human PD-L1 cells. Background: Flow cytometry measures light scatter and fluorescence of single cells or particles in a stream.
In the next experiment the target is T5, Cynomolgus CHOK1SV/CD40.
T5 construct: also called Cyno CD40 full-length; CD4001013
T5 receptor chain: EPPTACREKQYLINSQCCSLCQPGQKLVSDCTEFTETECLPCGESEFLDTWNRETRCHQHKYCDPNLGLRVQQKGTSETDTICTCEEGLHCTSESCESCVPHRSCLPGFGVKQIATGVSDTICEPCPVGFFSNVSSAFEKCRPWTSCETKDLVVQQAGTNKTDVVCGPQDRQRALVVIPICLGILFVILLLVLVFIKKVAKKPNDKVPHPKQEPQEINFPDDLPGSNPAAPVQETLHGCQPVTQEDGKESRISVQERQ
The experiment in a line: flow cytometry, CHOK1SV/cynomolgus CD40 cells.

The target of experiment [3] is T6, human neonatal Fc receptor (FcRn, complexed with beta-2-macroglobulin) (human, UniProt P55899 24-297; P61769 21-119).
T6 construct: also called Human FcRn/b2m
T6 sequence (P55899 24-297 limits assumed, chain 1 of 2): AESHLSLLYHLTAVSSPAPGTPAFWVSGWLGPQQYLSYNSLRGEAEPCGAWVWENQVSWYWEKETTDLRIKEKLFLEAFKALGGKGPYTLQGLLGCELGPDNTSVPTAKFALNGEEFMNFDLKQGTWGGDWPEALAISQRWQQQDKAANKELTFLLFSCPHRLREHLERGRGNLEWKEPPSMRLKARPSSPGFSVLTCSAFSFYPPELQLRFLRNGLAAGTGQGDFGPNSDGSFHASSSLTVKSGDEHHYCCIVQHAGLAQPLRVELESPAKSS
T6 sequence (P61769 21-119 limits assumed, chain 2 of 2): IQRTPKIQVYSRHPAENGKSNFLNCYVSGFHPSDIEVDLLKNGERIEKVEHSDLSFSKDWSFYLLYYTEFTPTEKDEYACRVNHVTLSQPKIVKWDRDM
As to the kind of experiment: SPR, FcRn/b2m immobilized, bispecific injected, pH 6.0, two-state reaction fit.

B1: PDL01034 (5F9HL x human IgG1 WT Fc) (Fc fusion)
chain: EVKLVESGGGLVQPGGSRKLSCAASGFTFSDYGMAWVRQAPGKGPEWVAFITSLAYIIFYSDTVTGRFTISRENAKNTLYLEMSSLRSEDTAVYYCARNYGSSPYYFDYWGQGTTLTVSSGGGGSGGGGSGGGGSGGGGSDIQMTQSPSSLSTSLGGKVTITCKASQDINKFISWYQHKPGKGPRLLIHYTSSLQPGIPSRFSGSGSGRDYSFSISNLEPEDIATYYCLQYDNLYTFGGGTKLEIK
notes: Murine anti-PD-L1 scFv (VH-VL) on human IgG1 wild-type Fc; also called PDL01034 (Parent); 5F9 clone PDL01034; not shown: human IgG1 WT Fc
In the experiment with huPD-L1 ECD AFH, B1 came in with a dissociation constant (Kd) of 0.2 nM, an off-rate constant (koff) of 0.00024 s⁻¹ and a kon of 1.4e+06 M⁻¹ s⁻¹. The binding result with Human PD-L1 full-length [1] is reported as “binds”. Moreover, the binding result with Cyno PD-L1 full-length is “binds”.

B2: PC401124 (bispecific antibody)
chain: DIQMTQSPSSLSASVGDRVTITCRASQDINKFLSWYQQKPGKAPKLLIHYTSSLQSGVPSRFSGSGSGTDFTLTISSLQPEDFATYYCLQYDNLYTFGQGTKLEIKGGGGSGGGGSGGGGSGGGGSEVQLVESGGGLVQPGGSLRLSCAASGFTFSDYGMAWVRQAPGKGLEWVSFITSLAYIIYYADSVKGRFTISRDNAKNSLYLQMNSLRAEDTAVYYCARNYGSSPYYFDYWGQGTLVTVSSEPKSSDKTHTCPPCPAPPAAAPSVFLFPPKPKDTLMISRTPEVTCVVVDVSHEDPEVKFNWYVDGVEVHNAKTKPREEQYNSTYRVVSVLTVLHQDWLNGKEYKCAVSNKALPAPIEKTISKAKGQPREPQVYTLPPSRDELTKNQVSLTCLVKGFYPSDIAVEWESNGQPENNYKTTPPVLDSDGSFFLYSKLTVDKSRWQQGNVFSCSVMHEALHNHYTQKSLSLSPGGGGSPSDIQMTQSPSSVSASVGDRVTITCRASQSLLFSVNQKNYLAWYQQKPGKAPKLLIYWASSLQSGVPSRFSGSGSGTDFTLTISSLQPEDFATYYCQHYYSYPWTFGQGTKVEIKGGGGSGGGGSGGGGSGGGGSQVQLVQSGAEVKKPGSSVKVSCKASGYTFSTSWIEWIRQAPGQGLEWMGSILPGSGSTNYNQKFQGRVTITADTSTSTAYMELSSLRSEDTAVYYCARGDDGSYNRWYFDHWGQGTLVTVSS
notes: also called H-Ala60Asn + H-Val100aAsn
In the case of B2, the binding result in the experiment with human CD40 full-length, in the experiment with Human PD-L1 full-length [2] and in the experiment with Cynomolgus CHOK1SV/CD40 was “binds” in each case. Besides, binding in experiment [3] was characterised by a dissociation constant (Kd) of 144 nM.

B3: PC401128 (bispecific antibody)
scFv-Fc-scFv chain: DIQMTQSPSSLSASVGDRVTITCRASQDINKFLSWYQQKPGKAPKLLIHYTSSLQSGVPSRFSGSGSGTDFTLTISSLQPEDFATYYCLQYDNLYTFGQGTKLEIKGGGGSGGGGSGGGGSGGGGSEVQLVESGGGLVQPGGSLRLSCAASGFTFSDYGMAWVRQAPGKGLEWVSFITSLAYIIYYADSVKGRFTISRDNAKNSLYLQMNSLRAEDTAVYYCARNYGSSPYYFDYWGQGTLVTVSSEPKSSDKTHTCPPCPAPPAAAPSVFLFPPKPKDTLMISRTPEVTCVVVDVSHEDPEVKFNWYVDGVEVHNAKTKPREEQYNSTYRVVSVLTVLHQDWLNGKEYKCAVSNKALPAPIEKTISKAKGQPREPQVYTLPPSRDELTKNQVSLTCLVKGFYPSDIAVEWESNGQPENNYKTTPPVLDSDGSFFLYSKLTVDKSRWQQGNVFSCSVMHEALHNHYTQKSLSLSPGGGGSPSDIQMTQSPSSVSASVGDRVTITCRASQSLTFSVNQKNYLAWYQQKPGKAPKLLIYWASSLQSGVPSRFSGSGSGTDFTLTISSLQPEDFATYYCQHYYSYPWTFGQGTKVEIKGGGGSGGGGSGGGGSGGGGSQVQLVQSGAEVKKPGSSVKVSCKASGYTFSTSWIEWIRQAPGQGLEWMGSILPGSGSTNYAQKFQGRVTITADTSTSTAYMELSSLRSEDTAVYYCARGDDGSYVRWYFDHWGQGTLVTVSS
notes: also called L-Leu30Thr
As for B3, the binding result with human CD40 full-length, in the experiment with Human PD-L1 full-length [2] and with Cynomolgus CHOK1SV/CD40 was “binds” throughout.
